Reference: patent US20070065882

Target: PKCβII in mouse brain (UniProt P68404)
Sequence (P68404 other isoform, or with tags, fused parts or gaps): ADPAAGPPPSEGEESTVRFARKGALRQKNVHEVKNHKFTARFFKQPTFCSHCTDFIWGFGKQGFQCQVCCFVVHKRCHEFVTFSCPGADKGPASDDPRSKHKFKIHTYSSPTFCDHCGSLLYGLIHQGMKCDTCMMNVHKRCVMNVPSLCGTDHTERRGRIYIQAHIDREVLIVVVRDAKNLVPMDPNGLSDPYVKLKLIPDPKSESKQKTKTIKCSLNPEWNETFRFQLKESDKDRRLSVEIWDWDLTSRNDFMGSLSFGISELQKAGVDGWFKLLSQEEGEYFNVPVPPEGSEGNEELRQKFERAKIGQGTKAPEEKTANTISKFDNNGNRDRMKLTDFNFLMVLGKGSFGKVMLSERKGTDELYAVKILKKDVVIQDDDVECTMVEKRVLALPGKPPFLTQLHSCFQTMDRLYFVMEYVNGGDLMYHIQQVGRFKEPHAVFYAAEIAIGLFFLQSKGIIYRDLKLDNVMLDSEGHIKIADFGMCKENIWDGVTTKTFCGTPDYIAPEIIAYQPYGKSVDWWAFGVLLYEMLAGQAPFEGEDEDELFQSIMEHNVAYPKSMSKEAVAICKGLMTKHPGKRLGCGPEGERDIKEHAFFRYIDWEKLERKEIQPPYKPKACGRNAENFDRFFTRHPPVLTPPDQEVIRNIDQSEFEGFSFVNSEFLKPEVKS

recombinant human AChE-R, 'readthrough' variant of acetylcholinesterase
PKC activity in brain homogenates (PKC assay kit, Upstate Biotechnology): Note the elevation of PKC activity in the different brain regions in the AChE-R transgenics as compared to FVB/N controls
